Paper PMC5120205 (Nature Communications, 2016)

How the values were obtained:
Settings in all cases: both partners purified
[1] = molecular target: T1, recombinant IsdB NEAT2 domain (Staphylococcus aureus USA300, UniProt Q2FHV2); test: ELISA
T1 construct: not shown: FLAG, C-terminal, kept

[2] = molecular target: T2, recombinant full-length IsdB (Staphylococcus aureus USA300, UniProt Q2FHV2); test: ELISA
T2 construct: not shown: FLAG, C-terminal, kept

[3] = molecular target: IsdB NEAT2 domain (Staphylococcus aureus USA300, UniProt Q2FHV2); test: SPR
[4] = molecular target: T3, recombinant full-length IsdB (Staphylococcus aureus USA300, UniProt Q2FHV2); test: SPR
T3 construct: not shown: FLAG, C-terminal, kept

[5] = molecular target: T4, recombinant IsdB NEAT1 domain (Staphylococcus aureus USA300, UniProt Q2FHV2); test: ELISA
T4 construct: not shown: FLAG, C-terminal, kept

[6] = molecular target: T2, recombinant full-length IsdB; test: SPR; remark: listed apart in the source
[7] = molecular target: T3, recombinant full-length IsdB; test: BLI; Octet; antibody captured on anti-species sensors (15 ug/ml), 32 nM rIsdB bound, then 1 uM Hb or buffer
[8] = molecular target: T5, recombinant full-length IsdB (Staphylococcus aureus USA300, UniProt Q2FHV2); test: ELISA; remark: listed apart in the source
T5 construct: not shown: FLAG, C-terminal, kept

B1: D4-30-N2 (antibody, V domains shown)
VH: QVQLVQSGSEVKKPGSSVTLSCKASGDTFNTHTYSWVRQAPGQRLEWIGGIMPIFAASKSAPHLQDRLTITANKATRTAYMELTSLTSDDSGVYYCARDGRGALQYWGQGTLVTVSS
VL: DIVMTQSPLSLPVTLGQPASISCSSAQSLVHSDGDSYLTWFHQRPGQSPRRLIYKVSIRDAGVPDRFSGSGSGTDFTLKISRVEAEDVGVYYCMQATHWPYTFGQGTKLEIK
B1: binds [1].

B2: D4-30-N2 antibody (human IgG) (antibody, V domains shown)
VH: QVQLVQSGSEVKKPGSSVTLSCKASGDTFNTHTYSWVRQAPGQRLEWIGGIMPIFAASKSAPHLQDRLTITANKATRTAYMELTSLTSDDSGVYYCARDGRGALQYWGQGTLVTVSS
VL: DIVMTQSPLSLPVTLGQPASISCSSAQSLVHSDGDSYLTWFHQRPGQSPRRLIYKVSIRDAGVPDRFSGSGSGTDFTLKISRVEAEDVGVYYCMQATHWPYTFGQGTKLEIK
B2: binds [2]; binds [3].

B3: D4-10-N1 (antibody, V domains shown)
VH: QVQLQESGPGLVKPSETLSLICTVSGGSISSSSYYWGWIRQTPERNLEWIGIIYFSGTTYYNPSLQSRVSMSLDRSTNRFSLRLSSVTAADTAIYYCAKPKSRDRGGPGDDYFGMDVWGQGIMVTVSS
VL: DIQLTQSPSFLSASVADRVTITCRASQAVRSSLAWYQQKPGKAPQLLIYSASTLENGVSSRFSGSGPGTEFTLTISSLQPEDVGTYYCQQLNTYPFTFGPGTKVEIK
With B3 the Kd [4] was less than 1 pM and the binding result [5] was “binds”.

B4: D4-10-N1 germline-reverted (IGHV4-39) (antibody, V domains shown)
VH: QLQLQESGPGLVKPSETLSLTCTVSGGSISSSSYYWGWIRQPPGKGLEWIGSIYYSGSTYYNPSLKSRVTISVDTSKNQFSLKLSSVTAADTAVYYCAKPKSRDRGGPGDDYFGMDVWGQGIMVTVSS
VL: DIQLTQSPSFLSASVADRVTITCRASQAVRSSLAWYQQKPGKAPQLLIYSASTLENGVSSRFSGSGPGTEFTLTISSLQPEDVGTYYCQQLNTYPFTFGPGTKVEIK
B4: binds [6].

B5: D4-10-N1 antibody (human IgG) (antibody, V domains shown)
VH: QVQLQESGPGLVKPSETLSLICTVSGGSISSSSYYWGWIRQTPERNLEWIGIIYFSGTTYYNPSLQSRVSMSLDRSTNRFSLRLSSVTAADTAIYYCAKPKSRDRGGPGDDYFGMDVWGQGIMVTVSS
VL: DIQLTQSPSFLSASVADRVTITCRASQAVRSSLAWYQQKPGKAPQLLIYSASTLENGVSSRFSGSGPGTEFTLTISSLQPEDVGTYYCQQLNTYPFTFGPGTKVEIK
B5: binds [6].

B6: germlined D4-10 (NEAT1) (antibody, V domains shown)
VH: QLQLQESGPGLVKPSETLSLTCTVSGGSISSSSYYWGWIRQPPGKGLEWIGSIYYSGSTYYNPSLKSRVTISVDTSKNQFSLKLSSVTAADTAVYYCAKPKSRDRGGPGDDYFGMDVWGQGIMVTVSS
VL: DIQLTQSPSFLSASVADRVTITCRASQAVRSSLAWYQQKPGKAPQLLIYSASTLENGVSSRFSGSGPGTEFTLTISSLQPEDVGTYYCQQLNTYPFTFGPGTKVEIK
B6: binds [7].

B7: D2-06-N2 (IGHV1-69*01 germline-reverted) (antibody, V domains shown)
VH: QVQLVQSGAEVKKPGSSVKVSCKASGGTFSSYAISWVRQAPGQGLEWMGGIIPIFGTANYAQKFQGRVTITADESTSTAYMELSSLRSEDTAVYYCARDRPPGAQFDTWGQGTLVTVSS
VL: not shown
B7 showed an other [3] greater than 600 fold.

B8: D2-06-N2 (IGHV1-69*01 germline-reverted) variant F54L (antibody, V domains shown)
VH: QVQLVQSGAEVKKPGSSVKVSCKASGGTFSSYAISWVRQAPGQGLEWMGGIIPILGTANYAQKFQGRVTITADESTSTAYMELSSLRSEDTAVYYCARDRPPGAQFDTWGQGTLVTVSS
VL: not shown
B8: binds [2].

B9: D2-06-N2 (IGHV1-69*01 germline-reverted) variant G50R (antibody, V domains shown)
VH: QVQLVQSGAEVKKPGSSVKVSCKASGGTFSSYAISWVRQAPGQGLEWMGRIIPIFGTANYAQKFQGRVTITADESTSTAYMELSSLRSEDTAVYYCARDRPPGAQFDTWGQGTLVTVSS
VL: not shown
B9: no binding [8].

B10: D2-06-N2 (IGHV1-69*01 germline-reverted) variant T56I (antibody, V domains shown)
VH: QVQLVQSGAEVKKPGSSVKVSCKASGGTFSSYAISWVRQAPGQGLEWMGGIIPIFGIANYAQKFQGRVTITADESTSTAYMELSSLRSEDTAVYYCARDRPPGAQFDTWGQGTLVTVSS
VL: not shown
B10: binds [2].
